Data taken from PMC9723501 (Nucleic Acids Research, 2022).

What was measured:
ITC = target: the molecule itself; experiment: ITC
SEC-MALS = target: the molecule itself; experiment: SEC-MALS

B1: PV 2C NΔ39 (poliovirus 2C protein lacking the amino-terminal 39 residues) (domain or fragment)
chain: ARDKLEFVTKLRQLEMLENQISTIHQSCPSQEHQEILFNNVRWLSIQSKRFAPLYAVEAKRIQKLEHTINNYIQFKSKHRIEPVCLLVHGSPGTGKSVATNLIARAIAERENTSTYSLPPDPSHFDGYKQQGVVIMDDLNQNPDGADMKLFCQMVSTVEFIPPMASLEEKGILFTSNYVLASTNSSRISPPTVAHSDALARRFAFDMDIQVMNEYSRDGKLNMAMATEMCKNCHQPANFKRCCPLVCGKAIQLMDKSSRVRYSIDQITTMIINERNRRSNIGNCMEALFQ
- Kd (ITC): ~400 nM
- stoichiometry N (SEC-MALS): 2
